Assay results taken from the nanobody polyreactivity screen of Harvey et al. (2022).

Assay: yeast display, Sf9 membrane polyspecificity reagent, FACS + sequencing; frameworks hold sequencing errors
Summary of the method: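 Nanobodies from a synthetic yeast display library (Saccharomyces cerevisiae BJ5465), induced 36–48 hours with galactose, were stained 1 hour at 4 °C with 10% biotinylated, detergent-solubilized Sf9 membrane reagent, enriched on streptavidin microbeads, then FACS-sorted. Anti-HA (expression) and streptavidin (reagent binding) fluorescence set low and high (top ~1%) gates. Polyreactivity labels come from the gate of origin. Genes were colony-PCR amplified, MiSeq 2 × 250 sequenced and filtered by CDR length.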

Sequence	polyreactivity (PSR sort gate)
QVKLLDSGGGLVQAGGSLRLSCAASGRNFYYYAMGWYRQAPGNERELVAAISSCGSTYADSVKGRFTISRDNAKTTVYLQMNSLKPEDTAVYYCAAYLSRLGPSGYYYWGQGTQVTVSS	high polyreactivity
QVKLVESGGGLVQAGGSLRLSCAPSGFTFFTYAMGWYRQAPGKERVLVAAITSGGSTNYADSVKGRFTISRDNAKNTVDLQMNSLKPEDTAVYYCAKLAYSDATTVYGYQRSDYWGQGTQVTVSS	low polyreactivity
QVQLVESGGGLVQAGGSLRLSCAASGFTFRQYAMGWYRQAPGKERELVAAISSGGSTYYADSVKGRFTISRDNAKNTVYLQMNSLKPEDTAVYYCNAVARYYVAYDMYWGQGTQVTVSS	high polyreactivity
QVQLVESGGGLVQAGGSLRLSCAASGSIFYPYAMGWYRQANGKERELDAAITWRGGRTYYADSVKGRFTISRDNAKNTVYLQMNSLKPEDTAVYYCAAGWLTRSYEYDYWGQGTQVTVSS	high polyreactivity
QVQLVESGGGLVQAGGSLRLSCAASGSTFHYYAMGWYRQAPGKERELVAAITRGGNTYYADSVKGRFTISRGNAKNTVYLQMNSLKPEDTAVYYCAKDNLFEAYRYDYWGQGTQVTVSS	low polyreactivity
QVQLVESGGGLVQAGGSLRLSCAASGRILTSNAMGWSRQAPGKERELVAAISWSGGSTYYADSVKGRFTISRDNAKNTVYLQMNSLKPEDTAVYYCAAPFTTTFDYWGQGTQVTVSS	low polyreactivity
QVQLVESGGGLVQAGGSLRLICAASGFTFTGNAMGWYRQAPGKERELVAAITRGGSTKYADSVKGRITISRDNAMHTVYLQMNSLKPEDTAVYYCAAGVRYYRYYYWGQGTQVTVSS	high polyreactivity
QVQLVESGGGLVQAGGSLRLSCAASGRTLGSNTMGWYRQAPGKERELVASISLSGGSTSYADSVKGRFTISRDNAKNTVYLQMNSLKPEDTAVYYCNAKYHRRLQWGTRYYYWGQGTQVTVSS	high polyreactivity
QVQLVESGGGLVQAGGSLRLSCASSGRIFDSNTMGWYRQAPGKERELVAAINWSDGSTYYADSVKGRFTISRDNAKYTVFLQMNSLKPEDTAVYYCNAGARRYLYDYWVQGTQVTVSS	low polyreactivity
QVQLVESGGGLVQAGGSLRLSCAASGSIFRPNAMGWYRQAPGKERELVAAITFRGSRTYYADSVKGRFTISRDNAKNPVYLQMNSMKPEDTAVYYCNRLAGQDQEFEYWGQGTQVTVSS	high polyreactivity
QVHLVESGGALVQAGGSLRLSCAASVIVFKRYAMGWYRQAPGKEREFVATISYTGGRTYYADSVKGRFTISRDNAKNTVYFQMNSLKPEDTAGYYCATLYRSSKHQPLDYWGQGTQVTVSS	high polyreactivity
QVQLEESGGGLVQAGGSLRLSCAASGSIFYYNAMGWYRQAPGTERELVAAIRRSGGRTYYADSVKGRFTISRDNAKNSVYLQMNSLKPEDTAVYYCAAVHYDRVTCQVDNDYWGQGTQVTVSS	high polyreactivity
QVQLVESGGGLVQAGGSLRLSCAASGRTFRRYAMGWSRQAPGKERELVATISSGGSTNYADSVKGRFTISRDNAKNTVYLQMNSLKPEDTAVYYCKARGRSTVTYGYWGQGTQVTVSS	high polyreactivity
QVQLVESGGGLVQAGGGLRLSCAASGTFKRNAMGWYRQAPGKERELVATITRTGSTTYADSVKGRFTISRDNAKNTVYLQMNSLKPEDTAVYYCAAGYPPEDPEDYWGQGTQVTVSS	low polyreactivity
QVQLVESGGGLVQAGGSLRLSCAASGSIFKRYTMGWYRQAPGKERELVASIRSRAGNTYYADSVKGRFTISRDNAKNTVYLQMNSLKPEDTAVYYCAVSAWGYYRTSYGYWGQGTQVTVSS	high polyreactivity
QVQLVESGGGLVQAGGSLRLSCAASGRTSDGYAMGWYRQAPGKERELVAGITEGGGDTYYADSVKGRFTISRDNAKNTVYLQMNSLKPEDSAVYYCNAVEGSRLPYDYWGQGTQVTVSS	low polyreactivity
QVQLVESGGGLVQAGGSLRLSFAASGSIFYAYAMGWYRQAPGKERELVAGISGGGSTNYADSVKGRFTISRDNAKNTVYLQMNSLKPEDTAVYYCAADGWLSATYDGLPDSDSWGQGTQVTVSS	high polyreactivity
QVQLVESGGGLVQAVGSLRLSCAASGGIFRVYAMGWYREAPGKEREMVAAIRWTGGSTYYADSVKGRFKISRDNAKNTVYLQMKRLKPEDTAVYYWAAGRYYSDGSRTIYDYWGQGTQVTVSS	low polyreactivity
QVQLVESGGGLVQAGGSLRLSCAASGRTFFVNAMGWYRQAPGKERELVAGITRTGGTTYYADSVKGRFTISRDNAKNTVYLQMNSLKPEDTAVYYCAATPGGTDLGGGYYGFDYWGQGTQVTVSS	low polyreactivity
QVQLVESCGGLVQAGCSLRLSCAASGRTFVWYAMGWNRQAPGKERELVAAITLSGGSTYYADSVKGRFTISRDNAKNTVFLQMNSLIPEDTAVYYCAADGTYRPEDYDYWGQGTQVTVSS	low polyreactivity
QVQLVESGGGLVQAGGSLRLSCAASGSTIYVYAMGWYRQAPGKERELVAAITDSGGSTYADSVKGRFTISRDNAKNTVYLQMNSLKPEDTAVYADSTYNWYYYYWGQGTQVTVSS	low polyreactivity
QVQLQESGGGLVQAGGSLRLSCAASGSISYPRTMGWYREAPGKEREFVAGIGVGGTTYYADSVKGRFTISRDNAKNTVYLQMNSLKPEDAAVYYCAVAAYYDKYYVYWGQGTQVTVSC	low polyreactivity

Sequence	polyreactivity (PSR sort gate)
QLQLVESGGGLVQAGGSLRLSCAPTGRTFYRNAMGCKRPAPGKESELVASIRRNGGSTYYADSVKGRFTITRDNAKNTVYLPMNSMKPEDTAVYYCAAYFSYAGPKGAVYGMDYWGQGTQVTVSS	high polyreactivity
QVQLVESGGGLVQAGGSLRLSCAASGRIFGGNAMGWYRQAPGKERELVAAITTRGGSTYADSVKGRFTISRDKAKNTVYLQMNSLKPEDTAVYYCAVERSYHGGPRYLVRTYGYWGQGTQVTVSS	low polyreactivity
QVQLVESGGGLVQAGGSLRLTCAASVSTIAGNAMGWYRQAPGKERELVAVITRVGSTNYADSVKGRFTISRDNAKNTVYLQMKSLKPEDTEVYYCARYGFLLDYWRGGYYWGQGTQVTVSS	high polyreactivity
QVQHVESGGGLVQAGGSLRLSCDASGRIFAKYAMGWYRQAHGKERELVAGISWGGGSTYYADSVKGRFTISRDNAKNTVYLQMNSLKPEDTAVYYCAARIPKQRDVRGSGMNYWGQGTQVTVSS	high polyreactivity
QVQLVETGGGLVQAGGSLRLSCAASGATFNANGMGWYRQAPGKERELVAAISQRAGRTYYADSVKGRFTISRDNAKNTVYLQMNSLKPEDTAVYYCAARYLGGYYFRYYYWGQGTQVTVSS	high polyreactivity
QVQLVESGGGLVPAGGSLRLSCAASGSIFEGNAMGWYRQAPGKERELVAAISTTGGITYYADSVKGRFTISRDNAKNTVYLQMNSLKPEETAVYYCAADPSQPRIDSSNYDYWGQGTQVTVSS	low polyreactivity
QVQLVESGGGLVQAGGSLRLSCAASGFTFLKYAIGWYRQAPGKERELVAAISFSTGRTYYADSVKGRFTISRDNAKNTVYLQMNSLKPEDPAVYYGAAGYWPGYSLTYRGGFWGQGTQVTVSS	high polyreactivity
QVQLVESGGGLVQAGGSLRLTCAASGRTLRLYPMGWYRQAPGKERELVAAISRSGSSTYADSVKGRFTISRDNAKNTVYLQMYSLKPEDTAVYYCNAYQPRYGYWGQGTQVTVSS	high polyreactivity
QVQLVESGGGLVQAGGSLRLSCAASGLTFGGYAMGWYRQAPGKERELVAAISRSGGSTYYADSVKGRFTISRDNAKNTVYLQMNSLKPEDTAVYYCAAVLSVRVYGYDYWGQGTQVTVSS	low polyreactivity
QVQLVESGGGLVQAGGSLRLSCAASGSTFASNAMGWYRQAPGKARELVAGISSSDGGTYYADSVKGRFTISRDIAKYNVYLEMKSLKPEDTAVYSCNAPPGTFQWQGHSDYWGQGTEVTVSS	low polyreactivity
QVQLVESGGGLVQAGGSLRLSCAASGRIFYTKTMGWYRQAPGNEWELVAAIRSGTRTDYADSVKGRFTISRDNAKKTVYLQMNSLKPYDTAVSYCNKAAGVTGRYYYWGQGTQVTVSS	low polyreactivity
QVQLVESGGGLVQAGGSLRLSCAASGSTIDVYTMGWYRQAPGKERELVAAISRGSSTYYADSVKGRFTISRDNAKYTVYVQMNSLKPEDTAVYYCNAVTSRKYRRYGYGYWGQGTQVTVSS	high polyreactivity
QVQLVESGGGLVQAGGCLRLSCAASGSIFDYYTMGWYREAPGNEREFVAGISDSGGSTTYADSVKGRFTISRDNAKNTVYLQMNSLKPEDTAVYYCNAEYVGWFYKYDYWGQGTQVTVSS	high polyreactivity
QVQLVESGGGLVQAGGSLRLSCAASGYTFGVYVMGWYRQAPGKERELVAAISGSTYYADSVKGRFTISRDNAKNTVYLQMNSLKPEDTAVYYCNADYYRSVLIIGVYEYDYWGQGTHVTVSS	low polyreactivity
QVQLVESGGGLVQAGGSLLLSCAASGIIFRYYAMGWYRQAPGKERELVADISSDGGTYYADSVKGRFTISLDNATNTVYLQMNSLKPEDTAVDYCAADYQFYWHYYYWGQGTQVTVSS	high polyreactivity
QVQLVVSGGGLVQAGGSIRLSCAASGRIFFYNAMGWYRQAPGKERELVAGISSGGGSTYYADSVKGRFTISRDNAKNTVYLQLNSLKPDDPAVYYCNKVVYSYSVGVGEYDYWGQGTQVTVSS	high polyreactivity
QVQLVESGGCLVQAGGSLRLSCAASGSIFVWNVMGWYRKAPGKERELVAAISWRGGTTYYADSVKGRFTISRDNAKNTVYLQMNSLKPEDTAVYYCAKQKHWSVHGGYNYWGQGTQVTVSS	high polyreactivity
QVQLVESGGGLVQAGGSLRLSCAASGSIFYVYVMGWYRQAPGKERELVAAIDTGGGDTYYADSVKGRFTISRDNAKNTVYLQMNSLKPEDTAVYYCSTSGPQYYSRNFDYWGQGTQVTVSS	low polyreactivity
QDQLVESGVGLVQPGGSLRLSCAASGITFRKYAMGWYRQAPGKERELVAAIRWSGTRTYYADSVKGRFTISRDNAKNTDYLQMNRLKPEDTAVYYCATVYGATPGRSGLDYWGQGTQVTVSS	high polyreactivity
QVQLVESGGGLVQAGGSLRLSCAASGGTFTRYAMGWYRQAPGKEREFVAAITFSGGSTYYADSVKGRFTISRDNAKNTVYLQMNSLKPEDTAVYYCAVRERSTYRYYYWGQGTQVTVSS	high polyreactivity
QVQLVESGGGLVQAGGSLRLSCAASGRIFAVNAMGWYRQAPGKERELVASIRWSGGSTYYADSVKGRFTISRDNAKNTVYLQMNSLKPEDTAVYYCAAVFYLWGQGTQVTVSS	high polyreactivity
